Measured values: the supplement of paper PMC11196671

Key:
[1] = BHET released, HPLC; higher = more BHET released; extreme values may be limits of the assay; settings: 24 h
Description: (§1)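 Purified PET hydrolases, 2.5 ug enzyme on 3.5 mg amorphous PET film (aFilm) or crystalline PET powder (cryPow) in 0.5 mL of 50 mM buffer (NaCitrate pH 4.5/5.5, NaPhosphate 6.5/7.5, glycine 8.5/9.5) at 60 or 70 C with shaking for 24 h. Total aromatic product by UV-Vis (260/280 nm, blank-subtracted, normalised per mg enzyme) and individual TPA, MHET, BHET concentrations by UHPLC-DAD at 240 nm; duplicate reactions.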

[2] = MHET released, HPLC; higher = more MHET released; extreme values may be limits of the assay; settings: 24 h
Description: as §1

[3] = PET hydrolysis product formed (TPA+MHET+BHET, UV-Vis) per mg enzyme (mmol/mg enzyme); higher = more PET depolymerisation activity; extreme values may be limits of the assay; settings: 2 h
Description: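 Purified PET hydrolases (His-SUMO cleaved, E. coli C41(DE3) small-scale expression), 2.5 ug enzyme on 3.5 mg amorphous PET film (aFilm) or crystalline PET powder (cryPow) in 0.5 mL of 50 mM buffer (NaCitrate pH 4.5/5.5, NaPhosphate 6.5/7.5, glycine 8.5/9.5) at 60 or 70 C with shaking for 2 h. Soluble aromatic products (TPA+MHET+BHET) were quantified by UV-Vis at 260/280 nm, blank-subtracted against the no-enzyme control, and normalised per mg enzyme; duplicate reactions.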

[4] = as above; settings: 24 h
Description: as §1

QTNPYARGPNPTAASLEASAGPFTVRSFTVSRPSGYGAGTVYYPTNAGGTVGAIAIVPGYTARQSSIKWWGPRLASHGFVVITIDTNSTFDYPSSRSSQQMAALRQVASLNGDSSSPIYGKVDTARMGVMGHSMGGGASLRSAANNPSLKAAIPQAPWDSQTNFSSVTVPTLIFACENDSIAPVNSHALPIYDSMSRNAKQFLEINGGSHSCANSGNSNQALIGKKGVAWMKRFMDNDTRYSTFACENPNSTAVSDFRTANCS [DuraPETase]
Settings | BHET released, [1] [mM] | MHET released, [2] [mM] | PET hydrolysis product formed, [3] | PET hydrolysis product formed, [4]
PET substrate: aFilm, 60 °C, pH 4.5 | 0 | 0 | 0 | 0
PET substrate: aFilm, 60 °C, pH 5.5 | 0 | 0 | 0 | 0
PET substrate: aFilm, 60 °C, pH 6.5 | 0 | 0 | 0 | 0
PET substrate: aFilm, 60 °C, pH 7.5 | 0.0050186 | 0.182 | 0 | 0.0929
PET substrate: aFilm, 60 °C, pH 8.5 | 0 | 0.099 | 0 | 0.0536
PET substrate: aFilm, 60 °C, pH 9.5 | 0 | 0.152 | 0.0223 | 0.126
PET substrate: aFilm, 70 °C, pH 4.5 | 0 | 0 | 0 | 0
PET substrate: aFilm, 70 °C, pH 5.5 | 0 | 0 | 0 | 0
PET substrate: aFilm, 70 °C, pH 6.5 | 0 | 0 | 0 | 0
PET substrate: aFilm, 70 °C, pH 7.5 | 0 | 0.00907 | 0 | 0.00371
PET substrate: aFilm, 70 °C, pH 8.5 | 0 | 0.00981 | 0 | 0.00439
PET substrate: aFilm, 70 °C, pH 9.5 | 0 | 0 | 0.0191 | 0.0201
PET substrate: cryPow, 60 °C, pH 4.5 | 0 | 0 | 0 | 0
PET substrate: cryPow, 60 °C, pH 5.5 | 0 | 0 | 0 | 0
PET substrate: cryPow, 60 °C, pH 6.5 | 0 | 0.0436 | 0 | 0.0167
PET substrate: cryPow, 60 °C, pH 7.5 | 0.00475 | 0.21 | 0.0496 | 0.0809
PET substrate: cryPow, 60 °C, pH 8.5 | 0 | 0.169 | 0.032 | 0.0578
PET substrate: cryPow, 60 °C, pH 9.5 | 0 | 0.123 | 0.0701 | 0.0891
PET substrate: cryPow, 70 °C, pH 4.5 | 0 | 0 | 0 | 0
PET substrate: cryPow, 70 °C, pH 5.5 | 0 | 0 | 0 | 0
PET substrate: cryPow, 70 °C, pH 6.5 | 0 | 0.0107 | 0 | 0
PET substrate: cryPow, 70 °C, pH 7.5 | 0 | 0.0884 | 0.0447 | 0.0465
PET substrate: cryPow, 70 °C, pH 8.5 | 0 | 0.0546 | 0.0151 | 0.0236
PET substrate: cryPow, 70 °C, pH 9.5 | 0 | 0 | 0.0191 | 0

SNPYQRGPNPTRSALTADGPFSVATYTVSRLSVSGFGGGVIYYPTGTSLTFGGIAMSPGYTADASSLAWLGRRLASHGFVVLVINTNSRFDGPDSRASQLSAALNYLRTSSPSAVRARLDANRLAVAGHSMGGGGTLRIAEQNPSLKAAVPLTPWHTDKTFNTSVPVLIVGAEADTVAPVSQHAIPFYQNLPSTTPKVYVELCNASHIAPNSNNAAISVYTISWMKLWVDNDTRYRQFLCNVNDPALCDFRTNNRHCQ [LCC-ICCG]
Settings | BHET released, [1] [mM] | MHET released, [2] [mM] | PET hydrolysis product formed, [3] | PET hydrolysis product formed, [4]
PET substrate: aFilm, 60 °C, pH 4.5 | 0 | 0.00708 | 0 | 0.00176
PET substrate: aFilm, 60 °C, pH 5.5 | 0.00902 | 0.284 | 0.0182 | 0.126
PET substrate: aFilm, 60 °C, pH 6.5 | 0.0136 | 0.773 | 0.0377 | 0.327
PET substrate: aFilm, 60 °C, pH 7.5 | 0.0155 | 3.92 | 0.0795 | 1.42
PET substrate: aFilm, 60 °C, pH 8.5 | 0 | 0.271 | 0.0461 | 0.142
PET substrate: aFilm, 60 °C, pH 9.5 | 0.039 | 2.19 | 0.0968 | 0.885
PET substrate: aFilm, 70 °C, pH 4.5 | 0 | 0 | 0 | 0
PET substrate: aFilm, 70 °C, pH 5.5 | 0.00749 | 0.246 | 0.0371 | 0.109
PET substrate: aFilm, 70 °C, pH 6.5 | 0 | 0.356 | 0.0873 | 0.165
PET substrate: aFilm, 70 °C, pH 7.5 | 0.0808 | 4.35 | 0.226 | 1.92
PET substrate: aFilm, 70 °C, pH 8.5 | 0 | 0.221 | 0.0682 | 0.107
PET substrate: aFilm, 70 °C, pH 9.5 | 0 | 1.87 | 0.252 | 0.901
PET substrate: cryPow, 60 °C, pH 4.5 | 0 | 0.0148 | 0 | 0
PET substrate: cryPow, 60 °C, pH 5.5 | 0.00462 | 0.203 | 0.0406 | 0.0652
PET substrate: cryPow, 60 °C, pH 6.5 | 0 | 0.27 | 0.045 | 0.09
PET substrate: cryPow, 60 °C, pH 7.5 | 0 | 0.507 | 0.0768 | 0.184
PET substrate: cryPow, 60 °C, pH 8.5 | 0 | 0.198 | 0.0339 | 0.0728
PET substrate: cryPow, 60 °C, pH 9.5 | 0 | 0.165 | 0.0379 | 0.125
PET substrate: cryPow, 70 °C, pH 4.5 | 0 | 0 | 0 | 0
PET substrate: cryPow, 70 °C, pH 5.5 | 0 | 0.1 | 0.0205 | 0.031
PET substrate: cryPow, 70 °C, pH 6.5 | 0.0013 | 0.208 | 0.0349 | 0.0781
PET substrate: cryPow, 70 °C, pH 7.5 | 0 | 0.433 | 0.0598 | 0.2
PET substrate: cryPow, 70 °C, pH 8.5 | 0 | 0.173 | 0.0285 | 0.0667
PET substrate: cryPow, 70 °C, pH 9.5 | 0 | 0.1 | 0.0357 | 0.131

SNPYQRGPNPTRSALTADGPFSVATYTVSRLSVSGFGGGVIYYPTGTSLTFGGIAMSPGYTADASSLAWLGRRLASHGFVVLVINTNSRFDGPDSRASQLSAALNYLRTSDPSAVRARLDANRLAVAGHSMGGGATLRIAEQNPSLKAAIPLTPWHTQKTFNTSVPVLIVGAEADTVAPVSQHAIPFYQNLPSTTPKVYVELCNASHIAPNSNNAAISVYTISWMKLWVDNDTRYRQFLCNVNDPALCDFRTNNRHCQ [LCC-ICCG DAQI]
Settings | BHET released, [1] [mM] | MHET released, [2] [mM] | PET hydrolysis product formed, [3] | PET hydrolysis product formed, [4]
PET substrate: aFilm, 60 °C, pH 4.5 | 0 | 0.0359 | 0 | 0.0166
PET substrate: aFilm, 60 °C, pH 5.5 | 0.0132 | 0.267 | 0.02083 | 0.125
PET substrate: aFilm, 60 °C, pH 6.5 | 0 | 0.562 | 0.0428 | 0.232
PET substrate: aFilm, 60 °C, pH 7.5 | 0.0548 | 3.69 | 0.0608 | 1.37
PET substrate: aFilm, 60 °C, pH 8.5 | 0.00252 | 0.3306 | 0.0525 | 0.167
PET substrate: aFilm, 60 °C, pH 9.5 | 0.0577 | 2.09 | 0.0903 | 0.87
PET substrate: aFilm, 70 °C, pH 4.5 | 0 | 0 | 0 | 0
PET substrate: aFilm, 70 °C, pH 5.5 | 0.0149 | 0.189 | 0.0394 | 0.0923
PET substrate: aFilm, 70 °C, pH 6.5 | 0.00777 | 0.371 | 0.0829 | 0.205
PET substrate: aFilm, 70 °C, pH 7.5 | 0.143 | 4.52 | 0.189 | 2.08
PET substrate: aFilm, 70 °C, pH 8.5 | 0 | 0.211 | 0.0593 | 0.1
PET substrate: aFilm, 70 °C, pH 9.5 | 0 | 1.54 | 0.241 | 0.859
PET substrate: cryPow, 60 °C, pH 4.5 | 0 | 0.033 | 0 | 0.0113
PET substrate: cryPow, 60 °C, pH 5.5 | 0.00665 | 0.189 | 0.0387 | 0.0632
PET substrate: cryPow, 60 °C, pH 6.5 | 0 | 0.254 | 0.0449 | 0.0902
PET substrate: cryPow, 60 °C, pH 7.5 | 0 | 0.437 | 0.0986 | 0.173
PET substrate: cryPow, 60 °C, pH 8.5 | 0 | 0.197 | 0.0373 | 0.0738
PET substrate: cryPow, 60 °C, pH 9.5 | 0 | 0.155 | 0.0245 | 0.1163
PET substrate: cryPow, 70 °C, pH 4.5 | 0 | 0 | 0 | 0
PET substrate: cryPow, 70 °C, pH 5.5 | 0 | 0.0777 | 0.0166 | 0.0244
PET substrate: cryPow, 70 °C, pH 6.5 | 0.00289 | 0.167 | 0.0286 | 0.0648
PET substrate: cryPow, 70 °C, pH 7.5 | 0 | 0.424 | 0.0606 | 0.193
PET substrate: cryPow, 70 °C, pH 8.5 | 0 | 0.164 | 0.0323 | 0.0669
PET substrate: cryPow, 70 °C, pH 9.5 | 0 | 0.0936 | 0.0462 | 0.132
